How the values were obtained:
β-catenin [1] = molecular target: T1, β-catenin (Cricetulus griseus, UniProt G3H996); assay: Co-immunoprecipitation of cadherin derivatives with β-catenin in CHO cells; type: binding; conditions: stably transfected CHO cells, FIG. 2B
T1 construct: resulting from the stabilization of the endogenous β-catenin by the transfected cadherin derivatives; endogenous in cells; host or cells: CHO cells, stably or transiently transfected with cadherin derivatives only
T1 sequence (G3H996 1-781): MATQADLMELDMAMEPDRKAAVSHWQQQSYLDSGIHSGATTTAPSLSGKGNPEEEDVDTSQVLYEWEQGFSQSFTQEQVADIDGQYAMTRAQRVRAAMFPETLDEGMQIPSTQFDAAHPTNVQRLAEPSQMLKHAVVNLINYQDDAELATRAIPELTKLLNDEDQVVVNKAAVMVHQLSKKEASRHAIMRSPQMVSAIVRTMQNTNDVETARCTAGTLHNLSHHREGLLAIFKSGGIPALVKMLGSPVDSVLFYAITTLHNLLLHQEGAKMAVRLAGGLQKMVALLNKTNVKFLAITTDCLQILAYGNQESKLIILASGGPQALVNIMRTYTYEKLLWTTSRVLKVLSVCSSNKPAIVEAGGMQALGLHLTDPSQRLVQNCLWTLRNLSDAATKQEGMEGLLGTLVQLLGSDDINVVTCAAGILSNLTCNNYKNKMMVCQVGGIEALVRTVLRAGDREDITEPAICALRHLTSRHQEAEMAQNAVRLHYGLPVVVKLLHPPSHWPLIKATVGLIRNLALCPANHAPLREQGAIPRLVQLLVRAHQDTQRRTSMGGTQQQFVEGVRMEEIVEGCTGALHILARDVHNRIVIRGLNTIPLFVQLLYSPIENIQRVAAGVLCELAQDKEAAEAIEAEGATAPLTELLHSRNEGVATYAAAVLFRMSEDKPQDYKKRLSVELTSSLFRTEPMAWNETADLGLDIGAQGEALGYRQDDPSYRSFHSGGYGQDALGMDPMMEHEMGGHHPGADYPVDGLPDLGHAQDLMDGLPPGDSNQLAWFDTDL
Source text: Immunoblotting and immunoprecipitation: The following antibodies were used: polyclonal pan-cadherin or monoclonal anti cadherin (CH-19) and polyclonal anti β-catenin antibodies were from Sigma (Holon, Israel). Monoclonal anti β-catenin, 5H10 (from M. Wheelock), anti IL2Rα (from UBI), anti flag (M2, from IBI), anti HA (clone 12CA5, from Boehringer Mannheim, Germany), anti GFP (polyclonal, from Clontech, Palo Alto, Calif.), anti LEF-1 (polyclonal, kindly provided by Dr. R. Grosschedl). Secondary antibodies for Western blotting were goat anti rabbit or anti mouse conjugated to HRP (Amersham, Buckinghampshire, UK), and for immunofluorescence analysis the secondary antibodies were FITC-goat anti mouse (Cappel, USA) or rhodamine-anti rabbit antibodies (from Jackson Immuno-Research, West Grove, Pa.). Cells were harvested in Laemmli's sample buffer and equal amounts of total cell protein from the different clones, or from transient transfections, were separated by SDS-PAGE, electrotransferred to nitrocellulose and incubated with the different antibodies. For immunoprecipitation, cells were harvested in IP buffer (20 mM Tris pH 8.0, 1% Triton X-100, 140 mM NaCl, 10% glycerol, 1 mM EGTA, 1.5 mM MgCl2, 1 mM DTT, 1 mM sodium vanadate, and 50 μg/ml PMSF). […]

[2] = tested on: β-catenin-mediated transactivation; assay: TOPFLASH luciferase transactivation in SW480 cells (Example 1); type: cell-based, human; conditions: SW480 cells transfected with TOPFLASH and N-cadherin derivative, FIG. 6A
Experimental: (§1) Cell culture and transfections: CHO and SW480 human colon carcinoma cells were cultured in Dulbecco's modified Eagle's medium containing 10% fetal calf serum in an 8% CO2 incubator at 37° C. Transfections were performed using Lipofectamine (Gibco, BRL, USA) according to the manufacturer's instructions. Stably transfected CHO clones were generated by co-transfection with a plasmid encoding the puromycin resistance gene. Two days after transfection, cells were replated in the presence of 10 μg/ml puromycin (Sigma, Holon, Israel). Stable clones were isolated 2 weeks later and tested for the expression of the transgene by Western blot analysis.
Transactivation assays: CHO cells were transfected with TOPFLASH or FOPFLASH vectors (van de Wetering et al., 1997, ibid) and with pCDNA3 coding for β-galactosidase to normalize for transfection efficiency. The transfection mixture also contained either β-catenin, LEF-1 or cadherin derivatives in different combinations, as indicated. SW480 cells were transfected with TOPFLASH and cadherin derivatives. […] The reactions were stopped with 1 M Na2CO3 and the absorbance at 420 nm was determined. […] The luciferase reaction was monitored by a TD-20e luminometer (Turner, USA) and normalized for the β-galactosidase activity. […]

β-catenin [3] = molecular target: T1, β-catenin; assay: β-catenin level in CHO cells by Western blot; type: cell-based; conditions: stably transfected CHO cells, FIG. 2A
Experimental: as §1
Immunoblotting and immunoprecipitation: The following antibodies were used: polyclonal pan-cadherin or monoclonal anti cadherin (CH-19) and polyclonal anti β-catenin antibodies were from Sigma (Holon, Israel). Monoclonal anti β-catenin, 5H10 (from M. Wheelock), anti IL2Rα (from UBI), anti flag (M2, from IBI), anti HA (clone 12CA5, from Boehringer Mannheim, Germany), anti GFP (polyclonal, from Clontech, Palo Alto, Calif.), anti LEF-1 (polyclonal, kindly provided by Dr. R. Grosschedl). […]

interaction with β-catenin by co-immunoprecipitation (β-catenin [1]): direct interaction
effect on β-catenin levels (β-catenin [3]): increase in β-catenin levels
B1: N-cadherin tail: Cytoplasmic domain of chicken N-cadherin tagged with a Flag epitope (protein)
chain: MKRRDKERQAKQLLIDPEDDVRDNILKYDEEGGGEEDQDYDLSQLQQPDTVEPDAIKPVGIRRLDERPIHAEPQYPVRSAAPHPGDIGDFINEGLKAADNDPTAPPYDSLLVFDYEGSGSTAGSLSSLNSSSSGGEQDYDYLNDWGPRFKKLADMYGGGDD
modifications: left off: small tags and cut ends
inhibition of TOPFLASH reporter (luciferase) activity [2]: more than 85%

Reference: US20020045591A1, “Methods and therapeutic compositions for treating cancer” (priority 1998, published 2002)
